Laboratory results reported in patent US20170204184A1 (CB THERAPEUTICS, published 2017).

B1: ch5G11-hIgG1 (antibody)
heavy: not shown
light: SIVMTQTPKFLLVSAGDRVTITCKASQSVSNDVAWYQQKPGQSPKLLIYYAANRYTGVPDRFTGSGYGTDFTFTISIVQAEDLAVYFCQQDYTSPYTFGGGTKLEIKRTVAAPSVFIFPPSDEQLKSGTASVVCLLNNFYPREAKVQWKVDNALQSGNSQESVTEQDSKDSTYSLSSTLTLSKADYEKHKVYACEVTHQGLSSPVTKSFNRGEC
notes: Mouse-human chimeric IgG1 (D265A), human kappa; also called Chimeric 5G11-IgG1 (D265A); ch-5G11-IgG1
B2: ch5G11-hIgG4 (antibody)
heavy: not shown
light: B1 light
notes: Mouse-human chimeric IgG4 (F234A/L235A), human kappa; also called Chimeric 5G11-IgG4 (F234A/L235A); ch-5G11-IgG4
B3: ch8C6-hIgG4 (antibody, V domains shown)
VH: QVQLKQSGPGLVQPSQSLSITCTVSGFSLTSYGVHWVRQSPGKGLEWLGVIWSGGVTDYNAAFISRLSISKDNSKSQVFFKMNSLQANDTAIYYCARLGFYAMDYWGQGTSVTVSS
VL: SIVMTQTPKFLLVSAGDRVTITCKASQSVSNDVGWYQQKPGQSPKLLIYYASNRYSGVPDRFTGSGYGTDFTFTISTVQAEDLAVYFCQQDYTSPYTFGGGTKLEIKR
notes: Mouse-human chimeric IgG4 (F234A/L235A), human kappa; also called Chimeric 8C6-IgG4 (F234A/L235A); chimeric 8C6-hIgG4
B4: hu5G11-hIgG1 (antibody)
heavy: not shown
light: DIQMTQSPSSLSASVGDRVTITCKASQSVSNDVAWYQQKPGKAPKLLIYYAANRYTGVPDRFSGSGYGTDFTFTISSLQPEDIATYFCQQDYTSPYTFGQGTKLEIKRTVAAPSVFIFPPSDEQLKSGTASVVCLLNNFYPREAKVQWKVDNALQSGNSQESVTEQDSKDSTYSLSSTLTLSKADYEKHKVYACEVTHQGLSSPVTKSFNRGEC
notes: Humanized IgG1 with D265A; also called Humanized 5G11-IgG1 (D265A); hu-5G11-IgG1
B5: hu5G11-hIgG4 (antibody)
heavy: not shown
light: B4 light
notes: Humanized IgG4 with F234A and L235A; also called Humanized 5G11-IgG4 (F234A/L235A); hu-5G11-IgG4
B6: hu13C5-hIgG1 (antibody)
heavy: not shown
light: DIVLTQSPASLAVSPGQRATITCRASQSVSTSSSSFMHWYQQKPGQPPKLLIKYASNLESGVPARFSGSGSGTDFTLTINPVEANDTANYYCQHSWEIPYTFGQGTKLEIKRTVAAPSVFIFPPSDEQLKSGTASVVCLLNNFYPREAKVQWKVDNALQSGNSQESVTEQDSKDSTYSLSSTLTLSKADYEKHKVYACEVTHQGLSSPVTKSFNRGEC
notes: Humanized IgG1 with D265A; also called Humanized 13C5-IgG1 (D265A); hu-13C5-IgG1
B7: hu13C5-hIgG4 (antibody)
heavy: not shown
light: B6 light
notes: Humanized IgG4 with F234A and L235A; also called Humanized 13C5-IgG4 (F234A/L235A); hu-13C5-IgG4
B8: ch8H4-hIgG4 (antibody, V domains shown)
VH: EVKLVESGGGLVKPGGSLKLSCAASGFTFRSYGMSWARQIPEKRLEWVASISSGGTTYYLGSVQGRFTISRDNARNILYLQMSSLRSEDTAMYYCARGYDAGFAYWGQGTLVSVSS
VL: DIVLTQSPASLAVSLGQRATISCRASQSVSTSSYSYMHWYQQKPGQPPKLLIKYASNLESGVPARFSGSGSGTDFTLNIHPVEEEDTATYYCQNSWEIPYTFGGGTKLEIKR
notes: Mouse-human chimeric IgG4 (F234A/L235A), human kappa; also called Chimeric 8H4-IgG4 (F234A/L235A); chimeric 8H4-hIgG4
B9: hu5G11 (antibody)
VH: QITLKESGPTLVKPTQTLTLTCTVSGFSLSTYGVHWIRQPPGKALEWLGVIWRGVTTDYNAAFMSRLTITKDNSKNQVVLTMNNMDPVDTATYYCARLGFYAMDYWGQGTLVTVSS
light: B4 light
B10: hu13C5 (antibody)
VH: EVQLVESGGGLVKPGGSLRLSCAASGFIFRSYGMSWVRQAPGKGLEWVASISSGGSTYYPDSVKGRFTISRDNAKNSLYLQMNSLRAEDTAVYDCARGYDSGFAYWGQGTLVTVSS
light: B6 light

These binders were tested against T1, biotinylated human PD-L1-mFc (human, biotinylated (sites not given)) (assay: competition ELISA: blocks PD-L1-mFc-biotin binding to coated PD-1-hFc).
T1 construct: also called PDL-1-mFc-biotin
Description: The wells were aspirated and non-specific binding sites were blocked by adding 200 μL of blocking buffer (PBS with 1% (w/v) of bovine serum albumin (BSA, Roche, Cat No:738328)) and incubating for 1 hour at 37° C. After the plate was washed three times with wash buffer (PBS with 0.05% (v/v) Tween20 (Sigma, Cat No:P1379)), 100 μL/well of 1:3 serial dilutions of hybridoma (FIG. 4), chimeric (FIG. 5), or humanized (FIG. 6) anti-PD-L1 antibodies in blocking buffer (starting from 20 μg/mL) were added and incubated at 37° C. for 1 hour. […] After the plate was washed 3 times, secondary antibody (Avidin HRP eBioscience cat No.: E07418-1632, 1:500, 100 μl/well) was added and incubated at 37° C. for 0.5 hour. After the plate was washed, 100 μL/well of substrate solution TMB (eBioscience, Cat No: 00-4201-56) was added and the plate was incubated for 3min at room temperature. 100 μL/well of stop solution (2N H₂SO₄) was added to stop the reaction. The colorimetric signals were developed and read at 450 nm using an Auto Plate SpectraMax Plus (Supplier: Moleculer Devices; Model: MNR0643; Software: SoftMax Pro v5.4). Data were analyzed using GraphPad Prism 5 and IC50 was calculated (FIGS. 4-6; Tables 8-10).
B1 was tested, and the IC50 was 1.01 µg/mL. In the case of B2, the IC50 is reported as 0.926 µg/mL. In the case of B3, the IC50 is reported as 0.477 µg/mL. Binder B4 has an IC50 of 0.794 µg/mL. In the case of B5, the IC50 is reported as 0.823 µg/mL. Binder B6 has an IC50 of 1.2 µg/mL. B7 was tested, and the IC50 was 1.19 µg/mL. Work on B8 yielded an IC50 of 0.848 µg/mL.

What follows are binders tested against T2, PD-L1 on 293T cells (UniProt Q9NZQ7 19-290) (assay: flow cytometry competition: blocks biotin-labeled PD-1 binding to PD-L1-293T cells).
T2 construct: whole, on cells; also called PD-L1-293T; 293T-PD-L1 cells
Description: Briefly, PD-L1-293T cells were suspended in FACS buffer (PBS with 3% fetal calf serum). Various concentrations of the hybridoma (FIG. 10), chimeric (FIG. 11), or humanized (FIG. 12) anti-PD-L1 antibodies were added to the cell suspension and incubated at 4° C. for 60 minutes in 96 well plates. […] The cells were washed 3 times with PBS and incubated with mouse anti-biotin PE (Biolegend, cat# 409004). The cell-associated fluorescence was then detected by flow cytometry analysis using FACS array.
Work on B1 yielded an IC50 of 0.0404 µg/mL. Work on B2 yielded an IC50 of 0.0332 µg/mL. B3 showed an IC50 of 0.0349 µg/mL. Work on B4 yielded an IC50 of 0.0165 µg/mL. For B5, the IC50 was 0.0096 µg/mL. For B6, the IC50 was 0.0185 µg/mL. For B7, the IC50 was 0.0499 µg/mL. B8 was tested, and the IC50 was 0.042 µg/mL.

What follows are binders tested against T3, hPD-L1-mFc (human) (assay: ELISA, coated PD-L1-mFc).
T3 construct: it may hold a signal peptide; also called human PD-L1-mFc; PD-L1-mFc (Crownbio)
Description: ELISA binding analyses were conducted based on human PD-L1-mFc (for chimeric and humanized antibody detection) and PD-L1-hFc protein (for hybridoma antibody detection). 96-well plates (Costar, Cat No: 9018) were coated with 100 μL of 2 μg/ml PD-L1-mFc (Crownbio) in coating buffer PBS (Hyclone, Cat No: SH30256.01B) overnight at 4° C. The wells were aspirated and non-specific binding sites were blocked by adding 200 μL of blocking buffer (PBS with 1% (w/v) of bovine serum albumin (BSA, Roche, Cat No:738328)) and incubating for 1 hour at 37° C. After the plates were washed three times with wash buffer (PBS with 0.05% (v/v) Tween20 (Sigma, Cat No:P1379)), 100 μL/well of 1:10 serial dilutions of hybridoma (FIG. 1), chimeric (FIG. 2), or humanized (FIG. 3) anti-PD-L1 antibodies in blocking buffer (starting from 20 μg/mL) were added and incubated at room temperature for 1 hour. The plates were washed and incubated with 100 μL/well of Goat anti-Mouse IgG (H+L) (Thermo, Cat No: 31432) in blocking buffer for 60 min. After the plates were washed, 100 μL/well of substrate solution TMB (eBioscience, Cat No: 00-4201-56) were added and the plates were incubated for 2 min at room temperature. 100 μL/well of stop solution (2N H₂SO₄) was added to stop the reaction. The colorimetric signals were developed and read at 450 nm using an Auto Plate SpectraMax Plus (Supplier: Moleculer Devices; Model: MNR0643; Software: SoftMax Pro v5.4). Data were analyzed using GraphPad Prism 5 and EC50 was calculated (FIGS. 1-3; Tables 5-7).
B1 showed an EC50 of 0.0821 µg/mL. In the case of B2, the EC50 is reported as 0.09 µg/mL. B3 showed an EC50 of 0.076 µg/mL. For B4, the EC50 was 0.0495 µg/mL. B5 gave an EC50 of 0.0699 µg/mL. In the case of B6, the EC50 is reported as 0.0856 µg/mL. In the case of B7, the EC50 is reported as 0.127 µg/mL. For B8, the EC50 was 0.134 µg/mL.

The binders below were run against T2, PD-L1 on 293T cells (assay: flow cytometry on PD-L1-293T cells).
Description: Cell binding analyses of anti-PD-L1 antibodies were performed based on binding to a 293T cell line stably expressing PD-L1 (PD-L1-293T). 2×10⁵ 293T-PD-L1 cells were added into each well of 96-well culture plates and incubated with the indicated antibody (20 μg/ml with the dilution of 1:5) at 4° C. for 1 h. After the cells were washed three times with FACS buffer, the secondary antibody (PE Goat anti-mouse: 1:200; PE mouse anti-human: 1:10) was added to the cells at 100 μl/well, and incubated at 4° C. for 40 min. Cells were washed three times with FACS buffer and analyzed by FACS Array.
Work on B1 yielded an EC50 of 0.0583 µg/mL. B2 was tested, and the EC50 was 0.0897 µg/mL. B4 showed an EC50 of 0.0479 µg/mL. Work on B5 yielded an EC50 of 0.0543 µg/mL. B6 gave an EC50 of 0.08 µg/mL. Binder B7 has an EC50 of 0.0804 µg/mL.

These binders were tested against T4, Human PD-L1 (human, UniProt Q9NZQ7 19-238, limits assumed) (assay: SPR (Biacore 3000), antibody captured, PD-L1 as analyte, 1:1 fit).
T4 construct: also called PD-L1 analyte (Biacore); hPD-L1
Description: (§1) The binding kinetics between PD-L1 and PD-L1 antibodies were measured by Biacore analysis, which was performed at 25° C. on a Biacore3000 instrument and recorded with a data collection rate of 1 Hz. Polyclonal rabbit anti-mouse IgG (GE, BR-1008-38) was diluted with 10 mM pH 5.0 sodium acetate and immobilized onto reference and experiment flow cells of a CM5 biosensor chip to around 15000 RU using an amine coupling kit (GE, BR10050). […] PD-L1 analyte series were prepared by diluting the stocks with running buffer to 100 nM followed by 2× serial dilution in the same buffer down to 0.78 nM. Analytes were injected in series over the reference and experiment flow cells for 3 minutes at a flow rate of 30 μL/minute. Running buffer (PBS with 0.05% P20) was allowed to flow over for 10 minutes at a flow rate of 30 μL/minute. At the end of each cycle, the biosensor surface was regenerated with 3 minutes injection of 10 mM pH1.7 Glycine-HCl buffer at a flow rate of 10 μL/minute. For each analyte sample injection (i.e. each cycle), binding responses obtained from the experimental biosensor surface were double referenced by subtracting simultaneously recorded responses from the reference surface followed by additional subtraction of responses from a single referenced running buffer sample. The association and dissociation rate constants (ka and kd) were determined simultaneously by fitting double-referenced sensorgrams of the entire titration series to Langmuir model (1:1) using Biaevaluation 4.0 software. The dissociation constant, KD, was calculated from the determined rate constants by the relation KD=kd/ka.
With B9 the Kd was 0.225 nM. B10 gave a Kd of 1.74 nM.

These binders were tested against T5, cynomolgus PD-L1 (cynomolgus, UniProt G7PSE7 19-238) in the same assay as above.
T5 construct: also called Cyno-PD-L1; cyno-PD-L1; not shown: Any tag or Fc carrier on the soluble cynomolgus PD-L1 analyte
Description: as §1
For B9, the Kd was 0.275 nM. Work on B10 yielded a Kd of 2.43 nM.
